For test [1], the target named is T1, hCD30L (human, UniProt P32971 63-234).
T1 sequence (looked up): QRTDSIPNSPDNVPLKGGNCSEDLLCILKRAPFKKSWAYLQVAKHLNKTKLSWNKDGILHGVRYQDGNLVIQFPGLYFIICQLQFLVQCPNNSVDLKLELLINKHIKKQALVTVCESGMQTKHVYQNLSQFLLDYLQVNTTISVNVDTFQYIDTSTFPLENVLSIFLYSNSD
Nature of the test: competition ELISA on neutravidin captured biotinylated hOX40L. On the procedure:
(§1) The binding of OX40L blocking Nanobodies to other TNF family members was tested in a competition ELISA.
(§2) Detection was done using sTMB (SDT Reagents, Baesweiler, Germany), the reaction was stopped with 1M HCl and absorbance was determined at 450 nm.
(In general: An ELISA detects its analyte on a solid surface through an enzyme-linked reagent.)

Test [2] has as its target T2, human tumor necrosis factor-related apoptosis inducing ligand (human, UniProt P50591 114-281).
T2 construct: also called hTRAIL; TRAIL
The test is described as above. As to the method: as §1, §2

Test [3] addresses T3, human Receptor Activator for Nuclear Factor kappa B Ligand (human, UniProt O14788 143-317, limits assumed).
T3 construct: also called hRANKL; RANKL
T3 sequence (looked up): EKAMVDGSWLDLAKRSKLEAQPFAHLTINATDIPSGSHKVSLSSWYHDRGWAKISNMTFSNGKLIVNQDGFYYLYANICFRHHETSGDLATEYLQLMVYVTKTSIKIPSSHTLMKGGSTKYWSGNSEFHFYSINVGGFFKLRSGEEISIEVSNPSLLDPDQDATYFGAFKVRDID
The test is described as above. On the procedure:
as §1, §2

Test [4] concerns the target T4, hCD40L (human, UniProt P29965 113-261).
T4 sequence (looked up): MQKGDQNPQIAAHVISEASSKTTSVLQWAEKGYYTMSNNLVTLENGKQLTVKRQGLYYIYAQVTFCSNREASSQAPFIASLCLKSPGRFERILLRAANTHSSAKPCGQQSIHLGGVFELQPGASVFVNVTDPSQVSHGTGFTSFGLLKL
The description is as above. On the procedure:
as §1, §2

Test [5] deals with T5, hTNF-alpha (human, UniProt P01375 77-233). The test is described as above. As to the method: as §1, §2
Test [6] has as its target T6, biotinylated hOX40L (R&D Systems, biotinylated in house) (human, UniProt P23510 51-183, biotinylated with Sulfo-NHS-LC-Biotin, sites not stated).
T6 construct: same bought protein as m10, biotinylated; also called biotinylated OX40L
T6 sequence: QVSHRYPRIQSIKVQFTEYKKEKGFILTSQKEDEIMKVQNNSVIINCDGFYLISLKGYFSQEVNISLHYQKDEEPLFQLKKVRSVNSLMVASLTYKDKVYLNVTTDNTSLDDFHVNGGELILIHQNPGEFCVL
Description: hOX40L/hOX40 AlphaScreen, native sample. On the procedure:
(§3) Next, streptavidin donor beads were added and incubated for an additional 1 hour. Fluorescence was measured by reading plates on the EnVision Multilabel Plate Reader using an excitation wavelength of 680 nm and an emission wavelength of 520 nm.
(§4) In the TSA assay, Nanobodies were diluted to a concentration of 0.2 mg/ml and melting temperature (Tm) was determined at different pH by stepwise increase in temperature in presence of Sypro Orange, a dye that binds to […] residues that become exposed upon unfolding of the protein, using the Lightcycler (Roche) for detection. […] In SEC analysis, the Nanobodies were analyzed on a Phenomenex matrix to allow detection of multimers, aggregates or ‘stickyness’.

Test [7] addresses T7, recombinant human OX40L (extracellular domain, R&D Systems) (human, UniProt P23510 51-183).
T7 sequence: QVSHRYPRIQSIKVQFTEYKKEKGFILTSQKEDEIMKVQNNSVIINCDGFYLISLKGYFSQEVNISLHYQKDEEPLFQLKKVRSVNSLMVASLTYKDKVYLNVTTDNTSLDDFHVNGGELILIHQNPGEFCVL
Description: cell-based or functional assay.

Test [8] deals with T1, hCD30L. Description: competition ELISA: fixed concentration of OX40L01E07 pre-incubated with a concentration series of the competitor, then added to biotinylated hOX40L captured on neutravidin; OD450nm. As to the method: as §1, §2
In test [9] the target is T2, human tumor necrosis factor-related …. Described as above. On the procedure: as §1, §2
In test [10] the target is T3, human Receptor Activator for Nuclear …. The test is described as above. On the procedure:
as §1, §2

In test [11] the target is T4, hCD40L. Described as above. As to the method:
as §1, §2

Test [12] deals with T5, hTNF-alpha. Described as above. On the procedure:
as §1, §2

The target in test [13] is T6, biotinylated hOX40L (R&D Systems, …). Description: hOX40L/hOX40 AlphaScreen, assay 3, native. On the procedure:
as §3, §4
On the technique in general: In Alpha technology, singlet oxygen from a donor bead excites a nearby acceptor bead.

Test [14] shares this target. Nature of the test: hOX40L/hOX40 AlphaScreen, assay 2, native. On the procedure: as §3, §4
Test [15] shares this target. Description: hOX40L/hOX40 AlphaScreen, assay 1, native. On the procedure: Next, streptavidin donor beads were added and incubated for an additional 1 hour. Fluorescence was measured by reading plates on the EnVision Multilabel Plate Reader using an excitation wavelength of 680 nm and an emission wavelength of 520 nm. […]
For test [16] the target is unchanged. Nature of the test: hOX40L/hOX40 AlphaScreen, assay 2, heated at Tm+10 C.

Usually IC50 stands for the concentration needed to halve the response being measured. A lower IC50 goes with greater potency.

T5 sequence (P01375 77-233 limits assumed): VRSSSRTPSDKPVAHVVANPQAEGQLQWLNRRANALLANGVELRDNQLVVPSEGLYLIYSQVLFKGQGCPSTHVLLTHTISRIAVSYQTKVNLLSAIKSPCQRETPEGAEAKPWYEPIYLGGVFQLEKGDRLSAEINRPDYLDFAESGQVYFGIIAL
T2 sequence (P50591 114-281 limits assumed): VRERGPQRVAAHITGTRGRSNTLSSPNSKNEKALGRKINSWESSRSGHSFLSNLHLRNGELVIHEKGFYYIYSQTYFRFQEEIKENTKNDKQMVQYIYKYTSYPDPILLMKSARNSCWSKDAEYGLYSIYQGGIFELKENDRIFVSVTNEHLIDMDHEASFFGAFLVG

B1: OX40L01B11 (VHH)
VHH: EVQLVESGGGLVQAGGSLRLSCVASGRSFSTYIMGWFRQAPGKEREFVATISRSGITTRSADSVKGRFTISRDNAKNTVYLQMNSLKPEDTAVYYCAAGPYVEQTLGLYQTLGPWDYWGQGTQVTVSS
notes: monovalent Nanobody from E. coli; not shown: C-terminal c-myc and His6 tag
On to B1, for which the binding result in [1], in test [2], in test [3], in test [4] and in [5] was “no binding (tested: starting from 100 fold molar excess)” in each case. This molecule also yielded an IC50 in test [6] of 0.54 nM.

B2: OX40L01E07 (VHH)
VHH: EVQLVESGGGLVQAGGSLRLSCAASGRTFSSIYAKGWFRQAPGKEREFVAAISRSGRSTSYADSVKGRFTISRDNAKNTVYLQMNSLKPEDTAVYYCAAVGGATTVTASEWDYWGLGTQVTVSS
notes: as for B1
For B2, the “IC50, T cell assay with rec. hOX40L” value in [7] turned out to be 1.48 nM. Moreover, the binding result in [8], in test [9], in test [10], in test [11] and in test [12] was “no binding” in each case. In [6], it took 0.1 nM to reach half-maximal inhibition (IC50).

B3: OX40L15B07 (VHH)
VHH: EVQLVESGGGLVQAGGSLRLSCAASRSIGRLDRMGWYRHRTGEPRELVATITGGSSINYGDFVKGRFTISIDNAKNTVYLQMNNLKPEDTAVYYCNFNKYVTSRDTWGQGTQVTVSS
notes: as for B1
On to B3, for which the IC50 in [13] amounted to 0.077 nM; in test [14], 0.066 nM; in [15], 0.102 nM; in test [16], 0.103 nM. Further, the binding result in [1], in test [2], in test [3], in test [4] and in [5] was “no binding (tested: starting from 100 fold molar excess)” throughout.

Source of the values: US20150218281A1 (Ablynx, published 2015).
